The source of these data is paper PMC8252471, “Rerouting and Improving Dauc‐8‐en‐11‐ol Synthase from Streptomyces venezuelae to a High Yielding Biocatalyst” (Chemistry (Weinheim an Der Bergstrasse, Germany), 2021).

Substrate in the data set: CC(C)=CCC/C(C)=C/CC/C(C)=C/CO[P@@](=O)(O)OP(=O)(O)O
As to the kind of experiment: enzyme kinetics. The format is biochemical, Streptomyces venezuelae.

B1: DcS (dauc-8-en-11-ol synthase; formerly isodauc-8-en-11-ol synthase, IdS) (Streptomyces venezuelae ATCC 10712) (protein)
chain: MTVRAVELPQLWMPYPLRVNPYLSALREESETWAREMGMLGGEGPSARGAIWTRSQFHAMTVELLTAWTLPDASLAGLRLNHRFNIWALAWDDYFASTFKQTGDLPGALDFTARLHAFLRPEADARSPEPVNAVERGIADLQKHLFPPRLAHWRQEFNLALAHYIDAGVQELTNSRGGRVPHLIEYAPFRRESFAAHTAPYSVELATGARIPEQLRHTRTVHALLDAFMDVMGLANDVASYEREVHEERDVNNLVVVIGTSLGITLHQAVPAALHMVNARMRDFEHLRHHELPPLVDRFGLRPDEREELETWLGGAASFLSGLHAWYTGAPRYAPTDHSVPEQRQRGGSEGAADRHAPAASSLARGAEAQTCGPTASAGSA
notes: motifs: D92 in 92DDYFA, R190, N236 in 236NDVASYERE, H58, H197, Y241
Turning to B1, the Km is 2.90 ± 0.02 mM and the kcat is 35.6 ± 2.9 s⁻¹.

B2: DcS (dauc-8-en-11-ol synthase; formerly isodauc-8-en-11-ol synthase, IdS) (Streptomyces venezuelae ATCC 10712; H197F/Y241F) (protein)
chain: MTVRAVELPQLWMPYPLRVNPYLSALREESETWAREMGMLGGEGPSARGAIWTRSQFHAMTVELLTAWTLPDASLAGLRLNHRFNIWALAWDDYFASTFKQTGDLPGALDFTARLHAFLRPEADARSPEPVNAVERGIADLQKHLFPPRLAHWRQEFNLALAHYIDAGVQELTNSRGGRVPHLIEYAPFRRESFAAFTAPYSVELATGARIPEQLRHTRTVHALLDAFMDVMGLANDVASFEREVHEERDVNNLVVVIGTSLGITLHQAVPAALHMVNARMRDFEHLRHHELPPLVDRFGLRPDEREELETWLGGAASFLSGLHAWYTGAPRYAPTDHSVPEQRQRGGSEGAADRHAPAASSLARGAEAQTCGPTASAGSA
notes: motifs: D92 in 92DDYFA, R190, N236 in 236…, H58, H197, Y241
Turning to B2, the Km is 5.95 ± 0.02 mM and the kcat turned out to be 65.5 ± 8.6 s⁻¹.
